Molecular target: T1, GST-HY5 (Arabidopsis thaliana, UniProt O24646 1-168)
T1 sequence: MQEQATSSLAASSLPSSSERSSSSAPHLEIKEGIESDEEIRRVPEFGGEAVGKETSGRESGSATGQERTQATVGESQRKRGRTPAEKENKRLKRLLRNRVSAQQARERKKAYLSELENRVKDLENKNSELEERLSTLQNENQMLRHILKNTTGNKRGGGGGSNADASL
Experiment: EMSA

B1: NST3 promoter Probe 1 (dsDNA)
DNA 1: CATGACATTACACGTCAAAAGAAATATGTCTTACGTCAGAACTTACGTAT
DNA 2: ATACGTAAGTTCTGACGTAAGACATATTTCTTTTGACGTGTAATGTCATG
Question: Does B1 bind?
Answer: binds

B2: NST3 promoter Probe 2 (dsDNA)
DNA 1: AATTAACATGGTAGAATGTAGATGACGTAGATCATGAAACGAGTGTGTGA
DNA 2: TCACACACTCGTTTCATGATCTACGTCATCTACATTCTACCATGTTAATT
Question: Does B2 bind?
Answer: binds

Source: publication PMC11626169
